Reference: publication doi:10.1101/2022.04.18.488652 (bioRxiv, 2022)
Numbering of substitutions follows the chain as printed. Numbers in names are those of the source.

B1: NaKΔ18 (domain or fragment, B. cereus)
chain: WKDKEFQVLFVLTILTLISGTIFYSTVEGLRPIDALYFSVVTLTTVGDGNFSPQTDFGKIFTILYIFIGIGLVFGFIHKLAVNVQLPSILSNRKKE
B2: NaKΔ18 L35A (domain or fragment, B. cereus, UniProt Q81HW2 19-114, looked up)
chain: B1 chain with L17A
B3: NaKΔ18 L61A (domain or fragment, B. cereus, UniProt Q81HW2 19-114, looked up)
chain: B1 chain with L43A
B4: NaKΔ18 L61T (domain or fragment, B. cereus, UniProt Q81HW2 19-114, looked up)
chain: B1 chain with L43T
B5: NaKΔ18 L35A+L61A (domain or fragment, B. cereus, UniProt Q81HW2 19-114, looked up)
chain: B1 chain with L17A, L43A

Target: the molecule itself
Assay: SEC

Stoichiometry N, 4:
B1
B2
B3
B4
B5
